Legend:
[1] = tested on: HeLa Kyoto; assay: melting temperature (median over replicates), in situ; higher = more thermally stable
[2] = tested on: HeLa Kyoto; assay: solubility in G1/S (NP-40 vs SDS abundance) (log2 ratio); higher = more soluble; settings: cell cycle stage: G1/S
[3] = tested on: HeLa Kyoto; assay: thermal stability score vs G1/S (z-score of summed log2 fold changes over temperatures); higher = more thermally stable than in G1/S
[4] = tested on: HeLa Kyoto; assay: solubility change mitosis vs G1/S (difference of NP-40 vs SDS log2 ratios) (log2 ratio difference); higher = more soluble in mitosis
[5] = cell cycle stage: early G1 (4.5 h after nocodazole release)
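Wherever melting temperature (median over replicates), in situ is given: HeLa Kyoto cells synchronized by double thymidine or nocodazole block, proteins quantified by TMT10plex mass spectrometry, three independent biological replicates.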
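Wherever solubility change mitosis vs G1/S (difference of NP-40 vs SDS log2 ratios) is given: synchronized HeLa Kyoto cells (double thymidine block for G1/S, nocodazole release for mitosis), protein amounts in NP-40 versus SDS lysates quantified by mass spectrometry, three biological replicates.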
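Wherever solubility in G1/S (NP-40 vs SDS abundance) is given: HeLa Kyoto cells arrested at G1/S by double thymidine block, proteins quantified by TMT10plex mass spectrometry in mild NP-40 versus SDS extracts, three biological replicates.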
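Wherever thermal stability score vs G1/S (z-score of summed log2 fold changes over temperatures) is given: synchronized HeLa Kyoto cells, proteins quantified by TMT10plex mass spectrometry, three biological replicates, mitosis taken 0.5 h after nocodazole release, G1/S directly after double thymidine block.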

Row | Sequence | melting temperature ([1]; cell cycle stage: G1/S) | melting temperature ([1]; cell cycle stage: mitosis) | solubility in G1/S (log2) [2] | thermal stability score [3, 5] | thermal stability score ([3]; cell cycle stage: mitosis) | solubility change mitosis (log2) [4]
1 | MADDLGDEWWENQPTGAGSSPEASDGEGEGDTEVMQQETVPVPVPSEKTKQPKECFLIQPKERKENTTKTRKRRKKKITDVLAKSEPKPGLPEDLQKLMKDYYSSRRLVIELEELNLPDSCFLKANDLTHSLSSYLKEICPKWVKLRKNHSEKKSVLMLIICSSAVRALELIRSMTAFRGDGKVIKLFAKHIKVQAQVKLLEKRVVHLGVGTPGRIKELVKQGGLNLSPLKFLVFDWNWRDQKLRRMMDIPEIRKEVFELLEMGVLSLCKSESLKLGLF [CMSS1] | 49.9 °C | 50.3 °C | -0.211 | 1.03 | 0.589 | 0.103
2 | MADDQGCIEEQGVEDSANEDSVDAKPDRSSFVPSLFSKKKKNVTMRSIKTTRDRVPTYQYNMNFEKLGKCIIINNKNFDKVTGMGVRNGTDKDAEALFKCFRSLGFDVIVYNDCSCAKMQDLLKKASEEDHTNAACFACILLSHGEENVIYGKDGVTPIKDLTAHFRGDRCKTLLEKPKLFFIQACRGTELDDGIQADSGPINDTDANPRYKIPVEADFLFAYSTVPGYYSWRSPGRGSWFVQALCSILEEHGKDLEIMQILTRVNDRVARHFESQSDDPHFHEKKQIPCVVSMLTKELYFSQ [CASP7] | 53.9 °C | 54.2 °C | 0.0897 | -0.531 | -2.43 | 0.00474
3 | MADEGKSYSEHDDERVNFPQRKKKGRGPFRWKYGEGNRRSGRGGSGIRSSRLEEDDGDVAMSDAQDGPRVRYNPYTTRPNRRGDTWHDRDRIHVTVRRDRAPPERGGAGTSQDGTSKNWFKITIPYGRKYDKAWLLSMIQSKCSVPFTPIEFHYENTRAQFFVEDASTASALKAVNYKILDRENRRISIIINSSAPPHTILNELKPEQVEQLKLIMSKRYDGSQQALDLKGLRSDPDLVAQNIDVVLNRRSCMAATLRIIEENIPELLSLNLSNNRLYRLDDMSSIVQKAPNLKILNLSGNELKSERELDKIKGLKLEELWLDGNSLCDTFRDQSTYISAIRERFPKLLRLDGHELPPPIAFDVEAPTTLPPCKGSYFGTENLKSLVLHFLQQYYAIYDSGDRQGLLDAYHDGACCSLSIPFIPQNPARSSLAEYFKDSRNVKKLKDPTLRFRLLKHTRLNVVAFLNELPKTQHDVNSFVVDISAQTSTLLCFSVNGVFKEVDGKSRDSLRAFTRTFIAVPASNSGLCIVNDELFVRNASSEEIQRAFAMPAPTPSSSPVPTLSPEQQEMLQAFSTQSGMNLEWSQKCLQDNNWDYTRSAQAFTHLKAKGEIPEVAFMK [NXF1] | 47.3 °C | 49.1 °C | -0.89 | 1.64 | 4.14 | 0.533
4 | MADGELNVDSLITRLLEVRGCRPGKIVQMTEAEVRGLCIKSREIFLSQPILLELEAPLKICGDIHGQYTDLLRLFEYGGFPPEANYLFLGDYVDRGKQSLETICLLLAYKIKYPENFFLLRGNHECASINRIYGFYDECKRRFNIKLWKTFTDCFNCLPIAAIVDEKIFCCHGGLSPDLQSMEQIRRIMRPTDVPDTGLLCDLLWSDPDKDVQGWGENDRGVSFTFGADVVSKFLNRHDLDLICRAHQVVEDGYEFFAKRQLVTLFSAPNYCGEFDNAGGMMSVDETLMCSFQILKPSEKKAKYQYGGLNSGRPVTPPRTANPPKKR [PPP1CB] | 52.3 °C | 52.1 °C | -0.161 | 0.423 | 0.737 | 0.0171
5 | MADGQMPFSCHYPSRLRRDPFRDSPLSSRLLDDGFGMDPFPDDLTASWPDWALPRLSSAWPGTLRSGMVPRGPTATARFGVPAEGRTPPPFPGEPWKVCVNVHSFKPEELMVKTKDGYVEVSGKHEEKQQEGGIVSKNFTKKIQLPAEVDPVTVFASLSPEGLLIIEAPQVPPYSTFGESSFNNELPQDSQEVTCT [HSPB8] | 52.3 °C | 52.1 °C | 0.653 | -0.244 | 0.347 | 0.167
